Experimental findings from PMC4629521 are described below.

Data set [1] deals with RSH, monomeric extensin from Arabidopsis (native) (Arabidopsis) (UniProt Q9FS16). Nature of the data set: cross-linking + SEC.
For a further data set, the system named is Q9FS16. Nature of the data set: cross-linking + SEC.
Data set [2] has as its target P1pH2, TOMP1 partially dearabinosylated by pH 2.0 HCl (tomato). Nature of the data set: cross-linking + SEC.
Data set [3] addresses RSHAra, RSH partially dearabinosylated by alpha-L-arabinofuranosidase (Arabidopsis) (UniProt Q9FS16). Nature of the data set: cross-linking + SEC.
For data set [4], the target named is TOMP1, tomato extensin precursor 1 (native) (tomato). Nature of the data set: cross-linking + SEC.
Data set [5] concerns the target RSHpH2, RSH partially dearabinosylated by pH 2.0 HCl (Arabidopsis) (UniProt Q9FS16). Nature of the data set: cross-linking + SEC.
Data set [6] addresses P1Ara, TOMP1 partially dearabinosylated by alpha-L-arabinofuranosidase (tomato). Nature of the data set: cross-linking + SEC.

As for “RSH, monomeric extensin from Arabidopsis (native) (from UniProt Q9FS16 28-431) (natural protein)”, the initial cross-linking rate in data set [1] came out at 269 µg/mL⋅min.

Regarding “RSH, monomeric extensin from Arabidopsis (native)”, the monomer peak area loss (5~30 min XL) in the data set on Q9FS16 came to 80.3%.

In the case of “P1pH2, TOMP1 partially dearabinosylated by pH 2.0 HCl (natural protein)”, the initial cross-linking rate in data set [2] is 95.3 µg/mL⋅min.

As to “RSHAra, RSH partially dearabinosylated by alpha-L-arabinofuranosidase (from UniProt Q9FS16 28-431) (natural protein)”, the initial cross-linking rate in data set [3] is 85 µg/mL⋅min.

For “RSHAra, RSH partially dearabinosylated by alpha-L-arabinofuranosidase”, the monomer peak area loss (5~30 min XL) with Q9FS16 came out at 40.1%.

For the substance “TOMP1, tomato extensin precursor 1 (native) (natural protein)”, the initial cross-linking rate in data set [4] is 213 µg/mL⋅min.

As for “RSHpH2, RSH partially dearabinosylated by pH 2.0 HCl (from UniProt Q9FS16 28-431) (natural protein)”, in data set [5], the initial cross-linking rate was 223 µg/mL⋅min.

As to “TOMP1, tomato extensin precursor 1 (native)”, the monomer peak area loss (5~30 min XL) in the data set “cross-linking + SEC” is 73.9%.

As for “P1Ara, TOMP1 partially dearabinosylated by alpha-L-arabinofuranosidase (natural protein)”, in data set [6], the initial cross-linking rate worked out at 28.5 µg/mL⋅min.

Turning to “P1Ara, TOMP1 partially dearabinosylated by alpha-L-arabinofuranosidase”, the monomer peak area loss (5~30 min XL) in the data set “cross-linking + SEC” was 24.9%.

“RSHpH2, RSH partially dearabinosylated by pH 2.0 HCl”: the monomer peak area loss (5~30 min XL) in the data set on Q9FS16 is 74.2%.

Turning to “P1pH2, TOMP1 partially dearabinosylated by pH 2.0 HCl”, the monomer peak area loss (5~30 min XL) in “cross-linking + SEC” stood at 54.2%.
